This passage reports self-cleavage results from the RNAGym collection of RNA variant scans (doi:10.7554/elife.80360).

The labels stand for the following.
B1: CPEB3 Ribozyme (parent)
chain: GGGGGCCACAGCAGAAGCGUUCACGUCGCGGCCCCUGUCAGAUUCUGGUGAAUCUGCGAAUUCUGCUGU

The series covers variants of B1. Briefly: self-cleavage, relative activity (ratio to wild type); higher = more cleavage; co-transcriptional.
As for GGGGGCCACAGCAGAAGCGUUCACGUCGCGGCCCCUGUCAGAUUCUGGUGAAUCUGCGAAGUUUGCUGU, the self-cleavage came to 0.57. In the case of GGGGGCCACAGCAGAAGCGUUCACGUCGCGGCCCCUGUCAGAUUCUGGUGAAUCUGCGAAGUAUGCUGU, the self-cleavage was determined as 0.673. The value for GGGGGCCACAGCAGAAGCGUUCACGUCGCGGCCCCUGUCAGAUUCUGGUGAAUCUGCGAAGUGUGCUGU was 0.396. The value for GGGGGCCACAGCAGAAGCGUUCACGUCGCGGCCCCUGUCAGAUUCUGGUGAAUCUGCGAACUAUGCUGU was 0.651; that for GGGGGCCACAGCAGAAGCGUUCACGUCGCGGCCCCUGUCAGAUUCUGGUGAAUCUGCGAACUUUGCUGU was 0.425; that for GGGGGCCACAGCAGAAGCGUUCACGUCGCGGCCCCUGUCAGAUUCUGGUGAAUCUGCGAAUACUGAUGU was 0.499.

For the variant GGGGGCCACAGCAGAAGCGUUCACGUCGCGGCCCCUGUCAGAUUCUGGUGAAUCUGCGAAUACUGGUGU, the self-cleavage was 0.458. The value for GGGGGCCACAGCAGAAGCGUUCACGUCGCGGCCCCUGUCAGAUUCUGGUGAAUCUGCGAUUUCUUCUGU was 0.43; that for GGGGGCCACAGCAGAAGCGUUCACGUCGCGGCCCCUGUCAGAUUCUGGUGAAUCUGCGAUUUCUACUGU was 0.527; that for GGGGGCCACAGCAGAAGCGUUCACGUCGCGGCCCCUGUCAGAUUCUGGUGAAUCUGCGAUUUCUGCAGU was 0.454. As for GGGGGCCACAGCAGAAGCGUUCACGUCGCGGCCCCUGUCAGAUUCUGGUGAAUCUGCGAUUUCUGCCGU, the self-cleavage was determined as 0.471. The value for GGGGGCCACAGCAGAAGCGUUCACGUCGCGGCCCCUGUCAGAUUCUGGUGAAUCUGCGAACUCUGCCGU was 0.764.

For the variant GGGGGCCACAGCAGAAGCGUUCACGUCGCGGCCCCUGUCAGAUUCUGGUGAAUCUGCGAACUCUGCAGU, the self-cleavage was determined as 0.741. The value for GGGGGCCACAGCAGAAGCGUUCACGUCGCGGCCCCUGUCAGAUUCUGGUGAAUCUGCGAACCCUGCUGU was 0.479.

Regarding GGGGGCCACAGCAGAAGCGUUCACGUCGCGGCCCCUGUCAGAUUCUGGUGAAUCUGCGAAUAAUGCUGU, the self-cleavage is 0.822. For GGGGGCCACAGCAGAAGCGUUCACGUCGCGGCCCCUGUCAGAUUCUGGUGAAUCUGCGAAUAGUGCUGU, the self-cleavage was determined as 0.481. Consider GGGGGCCACAGCAGAAGCGUUCACGUCGCGGCCCCUGUCAGAUUCUGGUGAAUCUGCGAAAUCUGCGGU, for which the self-cleavage was found to be 0.958.

For GGGGGCCACAGCAGAAGCGUUCACGUCGCGGCCCCUGUCAGAUUCUGGUGAAUCUGCGAAAUCUGCAGU, the self-cleavage was found to be 0.903. The value for GGGGGCCACAGCAGAAGCGUUCACGUCGCGGCCCCUGUCAGAUUCUGGUGAAUCUGCGAAAUCUGCCGU was 0.896; that for GGGGGCCACAGCAGAAGCGUUCACGUCGCGGCCCCUGUCAGAUUCUGGUGAAUCUGCGAACUCUUCUGU was 0.292; that for GGGGGCCACAGCAGAAGCGUUCACGUCGCGGCCCCUGUCAGAUUCUGGUGAAUCUGCGAACUCUCCUGU was 0.339. The value for GGGGGCCACAGCAGAAGCGUUCACGUCGCGGCCCCUGUCAGAUUCUGGUGAAUCUGCGAAUACUGCAGU was 0.924. The value for GGGGGCCACAGCAGAAGCGUUCACGUCGCGGCCCCUGUCAGAUUCUGGUGAAUCUGCGAAUACUGCCGU was 0.908; that for GGGGGCCACAGCAGAAGCGUUCACGUCGCGGCCCCUGUCAGAUUCUGGUGAAUCUGCGAACUCCGCUGU was 0.31; that for GGGGGCCACAGCAGAAGCGUUCACGUCGCGGCCCCUGUCAGAUUCUGGUGAAUCUGCGAACUCAGCUGU was 0.322.

On to GGGGGCCACAGCAGAAGCGUUCACGUCGCGGCCCCUGUCAGAUUCUGGUGAAUCUGCGAACUCGGCUGU, for which the self-cleavage was 0.474. The value for GGGGGCCACAGCAGAAGCGUUCACGUCGCGGCCCCUGUCAGAUUCUGGUGAAUCUGCGAAAUAUGCUGU was 0.729; that for GGGGGCCACAGCAGAAGCGUUCACGUCGCGGCCCCUGUCAGAUUCUGGUGAAUCUGCGAAAUUUGCUGU was 0.721; that for GGGGGCCACAGCAGAAGCGUUCACGUCGCGGCCCCUGUCAGAUUCUGGUGAAUCUGCGAUUUCCGCUGU was 0.445. The value for GGGGGCCACAGCAGAAGCGUUCACGUCGCGGCCCCUGUCAGAUUCUGGUGAAUCUGCGAACUCUGCUAU was 0.924. The value for GGGGGCCACAGCAGAAGCGUUCACGUCGCGGCCCCUGUCAGAUUCUGGUGAAUCUGCGAACUCUGCUCU was 0.978; that for GGGGGCCACAGCAGAAGCGUUCACGUCGCGGCCCCUGUCAGAUUCUGGUGAAUCUGCGAAAUCUUCUGU was 0.459; that for GGGGGCCACAGCAGAAGCGUUCACGUCGCGGCCCCUGUCAGAUUCUGGUGAAUCUGCGAAAUCUACUGU was 0.519. Take GGGGGCCACAGCAGAAGCGUUCACGUCGCGGCCCCUGUCAGAUUCUGGUGAAUCUGCGAAAUCUCCUGU: the self-cleavage came to 0.542. The value for GGGGGCCACAGCAGAAGCGUUCACGUCGCGGCCCCUGUCAGAUUCUGGUGAAUCUGCGAUUUCUGUUGU was 0.505. The value for GGGGGCCACAGCAGAAGCGUUCACGUCGCGGCCCCUGUCAGAUUCUGGUGAAUCUGCGAACUCUGCUGG was 0.974. The value for GGGGGCCACAGCAGAAGCGUUCACGUCGCGGCCCCUGUCAGAUUCUGGUGAAUCUGCGAACUCUGCUGC was 1.02.

Consider GGGGGCCACAGCAGAAGCGUUCACGUCGCGGCCCCUGUCAGAUUCUGGUGAAUCUGCGAAGUCAGCUGU, for which the self-cleavage is 0.555. In the case of GGGGGCCACAGCAGAAGCGUUCACGUCGCGGCCCCUGUCAGAUUCUGGUGAAUCUGCGAAGUCGGCUGU, the self-cleavage was 0.397.
